Publication PMC314469, “Protein Interaction Networks by Proteome Peptide Scanning” (PLoS Biology, 2004)

T1: amphyphisin SH3 (AMPH_HUMAN), P49418
T1 chain: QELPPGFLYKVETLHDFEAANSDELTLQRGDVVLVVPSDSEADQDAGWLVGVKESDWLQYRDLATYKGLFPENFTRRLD


Assays:
[1] = molecular target: T1, amphyphisin SH3 (AMPH_HUMAN), P49418; test: SPOT array
[2] = molecular target: endophilin SH3 (SH3G2_HUMAN), Q99962; test: SPOT array

| Binder | normalised SPOT signal, Boehringer light units (BLU); mean over the file's lines of this peptide [1] | normalised SPOT signal, Boehringer light units (BLU); mean over the file's lines of this peptide [2] |
| --- | --- | --- |
| LLSWIKRPSQRALR [Q9P145 28-41] | 28.6 | 568 |
| LLDTIKRPALQGLS [Q9P2D8 4-17] | 41.8 | 47.1 |
| LLEPPERPYRDREP [Q9HCM7 689-702] | 188 | 80.4 |
| LLEQILRPSKFLTY [Q9P0V3 740-753] | 29.9 | 6.9 |
| APPPPSRPPQPRPG [Q9NRK3 42-56] | 856 | 3870 |
| LLFSLRRPSSTVTM [Q96SW7 100-113] | 54.9 | 537 |
| LLGKPKRPRSAYNV [Q00059 151-164] | 45.3 | 268 |
| LLGPFRRPTTQLRA [P25100 499-512] | 336 | 614 |
| LLIIISRPARLLES [O60307 271-284] | 90.2 | 87.4 |
| LLLGIRRPEFLSRP [Q9NWT5 57-70] | 51.2 | 1340 |
| LLLHPRRPRLHPGT [O95141 51-64] | 87 | 1540 |
| LLLLLYRPPRYQIA [O60725 54-67] | 159 | 89.6 |
| LLLPPPRPPHSDIT [Q9H6X1 45-59] | 873 | 1430 |
| LLMVPRRPGYGAMG [Q9H9G7 14-27] | 183 | 3260 |
| LLMVPRRPGYGTMG [Q96JZ0 14-27] | 816 | 1280 |
| APPQIRRPNREVRP [Q9BW62 109-122] | 3240 | 638 |

| Binder | normalised SPOT signal, Boehringer light units (BLU); mean over the file's lines of this peptide [1] | normalised SPOT signal, Boehringer light units (BLU); mean over the file's lines of this peptide [2] |
| --- | --- | --- |
| LLNTLKRPKRPPLK [Q96NX2 21-34] | 443 | 85 |
| LLPALRRPSRASSA [O95327 190-203] | 5020 | 3500 |
| LLPFPLRPPSPHSP [Q9HAF8 97-111] | 178 | 9850 |
| LLPGPGRPPPPPTK [Q9UJJ7 274-288] | 103 | 3240 |
| LLSQLGRPFREYEL [Q9C095 450-463] | 204 | 0 |
| LLYLPLKPPNMFPS [Q9H799 457-471] | 28.2 | 13.3 |
| LLYTLRRPYFRKME [P36888 164-177] | 41.1 | 99 |
| LMIHPPRPPKVLGL [P39191 481-494] | 450 | 1020 |
| LMIIIARPARLLES [Q9BYE8 416-429] | 335 | 167 |
| LNSSFSRPDRPASV [P18627 187-200] | 4090 | 123 |
| APPRLARPPRFYEA [Q9HAH7 279-292] | 702 | 205 |
| LNKYLSRPKRFEVA [Q9Y648 264-277] | 71.8 | 212 |
| LNPDFSRPNRKYTW [P35573 181-194] | 1190 | 62.4 |
| LNRGPSRPRRQAGR [Q9NQA3 32-45] | 6720 | 207 |
| LPARPRRPTPTMVP [Q13545 30-43] | 10700 | 6910 |
